In the Immune Epitope Database (IEDB):

Assays:
HLA-A*02:01 [1] = assay: IEDB peptide-MHC binding, purified MHC/competitive/fluorescence; filed as Kd, often an IC50 or EC50 that approximates it; ≥ and ≤ were set here for values at or beyond the usual limits of such assays
HLA-A*02:03 [2] = assay: as above; conditions: source organism: Vibrio antiquarius
HLA-A*02:12 = assay: as above; conditions: source organism: Vibrio antiquarius
HLA-A*02:16 = assay: as above
HLA-A*02:19 = assay: as above; conditions: source organism: Vibrio antiquarius
HLA-A*03:01 [3] = assay: as above; conditions: source organism: Vibrio antiquarius
HLA-A*24:03 [4] = assay: as above; conditions: source organism: Vibrio antiquarius
HLA-A*26:01 [5] = assay: as above; conditions: source organism: Vibrio antiquarius
HLA-A*68:02 = assay: as above; conditions: source organism: Vibrio antiquarius
HLA-A*69:01 [6] = assay: as above; conditions: source organism: Vibrio antiquarius
HLA-B*15:01 [7] = assay: as above; conditions: source organism: Vibrio antiquarius
HLA-B*18:01 = assay: as above; conditions: source organism: Vibrio antiquarius
HLA-B*27:03 = assay: as above; conditions: source organism: Vibrio antiquarius
HLA-B*39:01 = assay: as above
HLA-B*46:01 [8] = assay: as above; conditions: source organism: Vibrio antiquarius
HLA-B*51:01 = assay: as above; conditions: source organism: Vibrio antiquarius
HLA-B*57:01 [9] = assay: as above; conditions: source organism: Vibrio antiquarius
HLA-B*08:02 = assay: IEDB peptide-MHC binding, purified MHC/direct/fluorescence; filed as Kd, often an IC50 or EC50 that approximates it; ≥ and ≤ were set here for values at or beyond the usual limits of such assays; conditions: source organism: Escherichia coli O157:H7 str. EC869
HLA-A*01:01 = assay: as above
HLA-A*03:01 [10] = assay: as above
HLA-B*15:09 = assay: as above; conditions: source organism: Yellow fever virus
HLA-B*27:05 = assay: as above
HLA-B*44:02 = assay: as above
HLA-B*46:01 [11] = assay: as above; conditions: source organism: Yellow fever virus
HLA-B*57:01 [12] = assay: as above; conditions: source organism: Yellow fever virus
HLA-B*58:01 = assay: as above
HLA-A*02:01 [13] = assay: as above
HLA-A*11:01 = assay: as above
HLA-A*26:01 [14] = assay: as above
HLA-A*30:01 = assay: as above
HLA-A*31:01 = assay: as above; conditions: source organism: Pseudomonas aeruginosa
HLA-A*69:01 [15] = assay: as above
HLA-B*07:02 = assay: as above
HLA-B*08:01 [16] = assay: as above
HLA-B*15:01 [17] = assay: as above
HLA-B*40:01 = assay: as above
HLA-A*02:03 [18] = assay: as above; conditions: source organism: Mycobacterium tuberculosis str. Haarlem
HLA-B*15:42 = assay: IEDB peptide-MHC binding, purified MHC/competitive/fluorescence; filed as Kd, often an IC50 or EC50 that approximates it; ≥ and ≤ were set here for values at or beyond the usual limits of such assays; conditions: source organism: Mycobacterium tuberculosis variant bovis BCG str. Pasteur 1173P2
HLA-B*45:06 = assay: as above; conditions: source organism: Mycobacterium tuberculosis variant bovis BCG str. Pasteur 1173P2
HLA-B*83:01 = assay: as above; conditions: source organism: Mycobacterium tuberculosis variant bovis BCG str. Pasteur 1173P2
HLA-A*24:03 [19] = assay: IEDB peptide-MHC binding, purified MHC/direct/fluorescence; filed as Kd, often an IC50 or EC50 that approximates it; ≥ and ≤ were set here for values at or beyond the usual limits of such assays
HLA-B*08:01 [20] = assay: IEDB peptide-MHC binding, purified MHC/competitive/fluorescence; filed as Kd, often an IC50 or EC50 that approximates it; ≥ and ≤ were set here for values at or beyond the usual limits of such assays; conditions: source organism: Salmonella enterica subsp. enterica serovar Typhi
[21] = source organism: Vibrio antiquarius
[22] = source organism: Yellow fever virus
[23] = source organism: Pseudomonas aeruginosa
[24] = source organism: Yersinia enterocolitica
[25] = source organism: Salmonella enterica subsp. enterica serovar Typhi
[26] = source organism: Toxoplasma gondii ME49
[27] = source organism: Pseudomonas aeruginosa UCBPP-PA14

In the case of FDLFGITLY, the Kd (HLA-A*02:01 [1]; [21]) is reported as no less than 20 µM, the Kd (HLA-A*02:03 [2]) is reported as no less than 20 µM and the Kd (HLA-A*02:12) is reported as no less than 20 µM. It also gave a Kd (HLA-A*02:16; [21]) of no less than 20 µM, a Kd (HLA-A*02:19) of no less than 20 µM and a Kd (HLA-A*03:01 [3]) of no less than 20 µM. The Kd (HLA-A*24:03 [4]) was no less than 20 µM, the Kd (HLA-A*26:01 [5]) was no less than 20 µM and the Kd (HLA-A*68:02) was no less than 20 µM. It also gave a Kd (HLA-A*69:01 [6]) of no less than 20 µM, a Kd (HLA-B*15:01 [7]) of no less than 20 µM and a Kd (HLA-B*18:01) of 0.279 µM. It also gave a Kd (HLA-B*27:03) of no less than 20 µM, a Kd (HLA-B*39:01; [21]) of no less than 20 µM and a Kd (HLA-B*46:01 [8]) of no less than 20 µM. For the same sequence, the Kd (HLA-B*51:01) was no less than 20 µM and the Kd (HLA-B*57:01 [9]) was no less than 20 µM.

For RMKMRRPHL, the Kd (HLA-B*08:02) was 2.36 µM.

For IQYVIRAQL, the Kd (HLA-A*01:01; [22]) was no less than 20 µM, the Kd (HLA-A*03:01 [10]; [22]) was no less than 20 µM and the Kd (HLA-B*15:09) was no less than 20 µM. It also gave a Kd (HLA-B*27:05; [22]) of no less than 20 µM, a Kd (HLA-B*44:02; [22]) of no less than 20 µM and a Kd (HLA-B*46:01 [11]) of no less than 20 µM. It also gave a Kd (HLA-B*57:01 [12]) of no less than 20 µM and a Kd (HLA-B*58:01; [22]) of no less than 20 µM.

DLPPAIAAE showed a Kd (HLA-A*01:01; [23]) of no less than 20 µM, a Kd (HLA-A*02:01 [13]; [23]) of no less than 20 µM and a Kd (HLA-A*03:01 [10]; [23]) of no less than 20 µM. The Kd (HLA-A*11:01; [23]) was no less than 20 µM, the Kd (HLA-A*26:01 [14]; [23]) was 1.95 µM and the Kd (HLA-A*30:01; [23]) was 12.6 µM. It also gave a Kd (HLA-A*31:01) of no less than 20 µM, a Kd (HLA-A*69:01 [15]; [23]) of no less than 20 µM and a Kd (HLA-B*07:02; [23]) of no less than 20 µM. The Kd (HLA-B*08:01 [16]; [23]) was no less than 20 µM, the Kd (HLA-B*15:01 [17]; [23]) was no less than 10 µM and the Kd (HLA-B*27:05; [23]) was no less than 20 µM. The Kd (HLA-B*40:01; [23]) was no less than 20 µM and the Kd (HLA-B*58:01; [23]) was no less than 20 µM.

AIYDTMQYV was tested, and the Kd (HLA-A*02:03 [18]) was 0.003 µM, the Kd (HLA-A*69:01 [15]; source organism: Mycobacterium tuberculosis) was 0.006 µM and the Kd (HLA-B*15:42) was no less than 5 µM. For the same sequence, the Kd (HLA-B*45:06) was no less than 5 µM and the Kd (HLA-B*83:01) was no less than 5 µM.

GYGRVNAGK showed a Kd (HLA-A*01:01; [24]) of no less than 20 µM, a Kd (HLA-A*02:01 [13]; [24]) of no less than 20 µM and a Kd (HLA-A*03:01 [10]; [24]) of no less than 20 µM. The Kd (HLA-A*11:01; [24]) was 6.54 µM, the Kd (HLA-A*24:03 [19]; [24]) was 10.3 µM and the Kd (HLA-A*26:01 [14]; [24]) was no less than 20 µM. For the same sequence, the Kd (HLA-A*30:01; [24]) was 9.1 µM, the Kd (HLA-A*69:01 [15]; [24]) was no less than 20 µM and the Kd (HLA-B*07:02; [24]) was no less than 20 µM. For the same sequence, the Kd (HLA-B*08:01 [16]; [24]) was no less than 20 µM, the Kd (HLA-B*15:01 [17]; [24]) was no less than 20 µM and the Kd (HLA-B*27:05; [24]) was no less than 20 µM. For the same sequence, the Kd (HLA-B*40:01; [24]) was no less than 20 µM, the Kd (HLA-B*44:02; [24]) was no less than 20 µM and the Kd (HLA-B*58:01; [24]) was no less than 20 µM.

WLMKYPYQL showed a Kd (HLA-A*02:01 [1]; [25]) of 0.0002 µM, a Kd (HLA-B*08:01 [20]) of 0.0886 µM and a Kd (HLA-B*39:01; [25]) of no more than 0.001 µM.

For FGGGPWWEV, the Kd (HLA-A*02:01 [1]; [26]) was 0.0122 µM and the Kd (HLA-A*02:16; [26]) was 0.0084 µM.

In the case of RTGTRLLGR, the Kd (HLA-A*01:01; [27]) is reported as no less than 20 µM, the Kd (HLA-A*02:01 [13]; [27]) is reported as no less than 20 µM and the Kd (HLA-A*03:01 [10]; [23]) is reported as 0.252 µM. The Kd (HLA-A*11:01; [23]) was 0.197 µM, the Kd (HLA-A*24:03 [19]; [27]) was no less than 20 µM and the Kd (HLA-A*26:01 [14]; [27]) was no less than 20 µM. The Kd (HLA-A*30:01; [23]) was 12 µM, the Kd (HLA-A*31:01) was 0.052 µM and the Kd (HLA-A*69:01 [15]; [27]) was no less than 20 µM. It also gave a Kd (HLA-B*07:02; [27]) of no less than 20 µM, a Kd (HLA-B*08:01 [16]; [27]) of no less than 20 µM and a Kd (HLA-B*15:01 [17]; [27]) of no less than 20 µM. It also gave a Kd (HLA-B*27:05; [27]) of no less than 20 µM, a Kd (HLA-B*40:01; [27]) of no less than 20 µM and a Kd (HLA-B*58:01; [27]) of no less than 20 µM.
